{"source": "paper PMC2199121", "target": "C57BL/6 and BALB/c IL-4Rs on transfected TF-1 cells (association rates told for both together)", "experiment": "radioligand binding"}
{"substance": "iodinated recombinant murine IL-4 (125I-IL-4) (from UniProt P07750 21-140) (ligand)", "values": [{"measurement": "kon", "value": "3.33e+06 to 4.33e+06", "unit": "M⁻¹ s⁻¹"}]}
